Experimental findings from the supplement of paper PMC12042874 are described below.

± gives the uncertainty stated by the source.

The nature of this series: amyloid nucleation score (Sup35N fusion, yeast selection) (log enrichment); library NNK2; higher = more nucleation; inactive = no reads after selection. Summed up:
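The nucleation score is the log enrichment of output over input reads, calculated with DiMSum and centred on the mode score of non-aggregating sequences. Sequences with under 100 input reads were excluded. Reads came from Illumina sequencing of plasmid inserts from psi-negative yeast expressing Sup35N fused to peptides of 20 random codons, induced 24 hours with 100 μM copper sulfate and grown 7 days at 30°C without adenine and uracil.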
Substance VHYMHLSRLLKLHAEPLAFW had an amyloid nucleation score of -0.02 ± 0.55.

Consider VIHAFIMYSFGTKDV, for which the amyloid nucleation score worked out at 0.885 ± 0.32. Under GLNCTIV stands 1.67 ± 0.32; under MVCRFGILSYVMWRF, 0.83 ± 0.45. Under WKVCLVYDKTFWHVEVEGES stands 0.042 ± 0.8. Under SLEDCYCDRVI stands -0.528 ± 0.34. As for YFGGFAKRQSTLPATRKYRL, the amyloid nucleation score was found to be 1.34 ± 0.52. The value for NCCEMNVLYLSIRLLFHVTA was 1.58 ± 0.097; that for PRLKMLRWAGVNQS was -0.011 ± 0.4.

In turn, AGIFQNSRRNPYRVYMMSVY had an amyloid nucleation score of 3.31 ± 0.06. Under DLYSHSFNLHGYSMRVCYNE stands 0.147 ± 0.65.

Take NNWVAAHSLS: the amyloid nucleation score entry is “inactive”. Under FVFELGKWHCELFWYELCLS stands “inactive”; under MTIHVSTELAALSSGL, 1.11 ± 0.17.

The substance TPVWVGVSLVPPIAPTTWIN yielded an amyloid nucleation score of 0.288 ± 0.28. Under CMSSDIYFLVFTESEIVSLC stands -0.42 ± 0.76; under VTFYGGAYSENYLVRCYALN, 4.47 ± 0.057.

The substance LCYHLYTRVITCFLLIDLVC had an amyloid nucleation score of -0.27 ± 1.1.

Take IFNVSLGYLTLIMVHYEFLH: the amyloid nucleation score was 5.733 ± 0.042. Under ARVRTMSVRFPVLSVVCYKL stands 3.69 ± 0.057; under TQLASIQPSVPCYIVYTVGL, 3.01 ± 0.085. Under VCGFRAIVVVDPYWQPGKMA stands 2.42 ± 0.13.

LWLVSKAYRYLPYSDWKSAL: the amyloid nucleation score was 0.161 ± 0.77. The value for HSLSFLMNSFMRYRSCLVVA was -0.119 ± 0.26; that for LYLYSWRCNPISP was “inactive”; that for SILGSSRTCILSSWWNVGTL was -0.091 ± 0.8. Under YLRRL stands -0.775 ± 0.61. The value for VIRSSFFFSLELSSREEFGY was -0.817 ± 0.74; that for IAVATSGP was 0.84 ± 0.46. As for YVRKVKA, the amyloid nucleation score worked out at 0.276 ± 1. The value for TFRWCHCYLTKEHVRFTCRA was 1.55 ± 0.53. Under ANFQIFDLLME stands -0.061 ± 0.43; under EEMYRSIARNVVVLNRYCES, -0.468 ± 0.26; under LVKVHSISMLINSYLGEFCL, 0.045 ± 0.79. Under SGNGTVRSEYTRYCCLKGEM stands 0.822 ± 0.3; under PPTTT, 0.621 ± 0.43; under NTCRSYNRNVIIRARPRPGL, 5.14 ± 0.069.

Take LDLCTPRSNKTMVNHDINYF: the amyloid nucleation score is -1.64 ± 0.77. Under VMGDWAFSGFSNSNFS stands -0.931 ± 0.44. The value for LRVHESAGSNLVVWIKIVLE was 3.42 ± 0.14. Under SLVVPDRYVNARYCNCCYGG stands 0.43 ± 0.65. SQSMNGRQMHLYDRPSTGWF: the amyloid nucleation score entry is “inactive”. Under ALGVGVDFVKVWRNRGLAGG stands 0.459 ± 0.51. Under VVWWGVNR stands 0.091 ± 0.38. The value for IYGLCERTFEA was 0.977 ± 0.14; that for QEVRSF was 0.6 ± 0.66; that for TKAYNTFLRPETVRLSESTK was 0.9 ± 0.18.

Take RSLIFLNWGYSV: the amyloid nucleation score came out at 3.59 ± 0.056. The value for KGSDSYLFIERWCLKMNISL was “inactive”; that for NELKY was 0.02 ± 0.56. The value for IYFYCGRCVSVFVHSFGMGL was 4.21 ± 0.05; that for HYRDPFVKRLMKPVGRPATL was 0.192 ± 0.55; that for VLVIVVTLRKWMTLNRRGVP was 0.155 ± 0.53. The value for RGWLRFMEQNGTYSEYDVDL was 12.82 ± 0.022; that for YSLLNVSHVVFTSA was -0.71 ± 0.61. In the case of NFEFFYRRNHT, the amyloid nucleation score entry was “inactive”. Under HVKTTYQLAFSNEQIM stands -0.673 ± 0.48. Take RVIHKFLYK: the amyloid nucleation score came out at 6.288 ± 0.06. The value for MASSPSVSIIKLFFGVEGLS was -0.681 ± 1; that for IMVVEQYLYYYSKVCTFFSV was “inactive”. The value for KFCVRVYNYIVDRITSLMKT was 3.22 ± 0.067; that for HGGPS was -0.571 ± 0.38. The value for DVFVRSRGKGRFMGSRDNWA was 0.76 ± 0.4; that for YWSVV was 3.73 ± 0.11. Substance ASLGPRFTDRTVQSHVNTRC displayed an amyloid nucleation score of 0.147 ± 0.41. Under CASWLVCMFRGMFRVLNTSG stands 2.82 ± 0.17; under LHTYYGMCLPRVENISENRV, “inactive”.

In turn, GLQSVDGLQNTYLGSNAVVD returned an amyloid nucleation score of 0.87 ± 0.26.

As to FLFEN, the amyloid nucleation score was -0.607 ± 0.64. The value for LWFLVFMDMVRRWRGNHRGE was -0.656 ± 1.1. Under SLFLDDKEWMKGITKFLMDP stands 0.419 ± 0.51; under SYVDNWNISRVYLRLTYSVY, -0.96 ± 0.49. With IVLLPWSCEM, the amyloid nucleation score stood at 1.26 ± 0.19. Under CGGAGRMLWGLADSNAALEA stands 0.163 ± 0.63. Under YDGSVKMGVFCGVRVYAPVS stands -0.191 ± 1.1; under WYKVDFNAWLFCKTIAHIFA, -1.1 ± 0.45; under FNHYQ, 0.419 ± 0.36. The value for TFHGFMCGQTLRGPFRLSWW was 3.95 ± 0.088; that for DESWETIFLYKCRGQNW was -0.213 ± 1.1. With LADTLVSESKYKWLF, the amyloid nucleation score is -0.032 ± 1.1. IVDRAFDRAFRCGTGFGTDI: the amyloid nucleation score result was “inactive”. Under YLIPFMYAKCLSWVILRK stands 0.029 ± 0.23. The value for GGLWTGLVSASKEFSK was “inactive”. Under GRGADKLTIG stands 0.288 ± 0.36. VYFFCYSFTYEEGMAIRKSC had an amyloid nucleation score of -1 ± 0.78. The value for CYWERWAS was -1.84 ± 0.78; that for YSRWRSLCTGAAFPGFWLNT was 1.96 ± 0.14; that for LNMMIINISFRSKSVDGSRM was 6.945 ± 0.056. The value for GGYIQRNNDNRFAEQV was “inactive”; that for LVRMPRGTSFGRCNVCV was “inactive”; that for SIFNFKATFGNSSRDVMSDD was 3.28 ± 0.057.

SDGEKFG displayed an amyloid nucleation score of -0.256 ± 1.1.

In the case of NLVCNSLFRDDKVSTELTEM, the amyloid nucleation score result is “inactive”.

For the substance CYGYMIMSAFMVGHWEPDRM, the amyloid nucleation score stood at 0.205 ± 0.77. The value for RSVSNDKYVFWFLRLVDVKA was 0.225 ± 0.26. As for PMCPMSIVLCSATLLLELFV, the amyloid nucleation score turned out to be 5.414 ± 0.037. The value for LNRCLDHRWIPKCVC was 1.36 ± 0.46; that for SKMYMPAVWMDGPSPQTTMW was 0.73 ± 0.37. The value for AILSNVEVLYTRFRIKSCKL was -0.435 ± 0.34; that for VTYFNVYSYCKYSAKGRCAS was 6.22 ± 0.081; that for YRLVHNSKREPGWRSCEWDH was 0.046 ± 0.63. Under WIAGLCPVDMADL stands 0.644 ± 0.23. FKHVLDRN displayed an amyloid nucleation score of -0.343 ± 0.45. Turning to WLKVLG, the amyloid nucleation score was determined as 4.571 ± 0.028. The value for SSYVVNSERVSDVARHSTLQ was 1.91 ± 0.21; that for THSNWTKNSVSSIYCIKILF was 6.647 ± 0.037; that for NRAFLMSYAPRRHFGAMSKA was 3.51 ± 0.073.

As for DGAGKYTSPSDYDDRYRLAV, the amyloid nucleation score amounted to 0.466 ± 0.17.

For the substance RFKLEYHEEG, the amyloid nucleation score came out at 2.81 ± 0.19. The value for VVKDLRT was 1.91 ± 0.48.

SSHLGTFLSDRGKSWVSGND registered an amyloid nucleation score of -0.569 ± 0.55.

On to TYMWTSLEST, for which the amyloid nucleation score entry was “inactive”. Under ILKPDMWFKGARCDTNQLNC stands -0.62 ± 0.39.

THDKLHFLAFVFSPLFLTTM: the amyloid nucleation score entry is “inactive”. MRLTTGINF yielded an amyloid nucleation score of -1.14 ± 0.76. Under SVKILPVISTTPFGV stands -0.922 ± 0.39; under ATGSYSMITLDIFQSNCSDA, 3.51 ± 0.053; under QFHFWMQRMMFPLEFVIWVW, 1.33 ± 0.34. Turning to DFLSVYSYIKWWAA, the amyloid nucleation score was -0.886 ± 0.49. The value for SMATSSYMLSAMRTCTLRSV was -0.231 ± 0.63.

FMRMALAGPDKF registered an amyloid nucleation score of -0.738 ± 1.1. Under SGQKFN stands 0.015 ± 0.76. The value for GYLYN was -1.32 ± 1.1.

As for MICHMFMG, the amyloid nucleation score entry was “inactive”. The value for RLNALLVWFVRVSMALVRES was -0.661 ± 1.1; that for TVSMNMRCCVECHYIKERYL was 4.16 ± 0.051; that for MPCLFVF was 2.28 ± 0.17. Under RAANLSLHSNGDTGGESVSD stands “inactive”. The value for GQYVQCNMSCVYVFLQWQRR was 6.262 ± 0.033. MHRLPNNIPTGNQLPLQPSE returned an amyloid nucleation score of -0.41 ± 0.48. Turning to MMFNYVFASLGFKRNVHLEC, the amyloid nucleation score entry was “inactive”. The substance KVMNNIL showed an amyloid nucleation score of -0.093 ± 0.36. Under DRNYVQNSSTKMHYWASFLT stands 1.71 ± 0.17; under GLLVELWSLLIIRYNLSAYL, -0.841 ± 0.48; under SGDHDGHEMRILRWSMLRYG, 1.56 ± 0.11. In turn, ICSPVQSAPSRAEKND had an amyloid nucleation score of -0.297 ± 0.45. WWFYAYVYWRW had an amyloid nucleation score of -0.403 ± 0.43.

In turn, LIKLMGKSLTRDRY gave an amyloid nucleation score of -0.771 ± 1.1. Consider VNFGI, for which the amyloid nucleation score was -0.948 ± 0.64. As for VCIVDLVS, the amyloid nucleation score is -0.203 ± 0.65. The value for CYSKLNASSVCIKFLPSQHE was -0.314 ± 0.27.
